This is an account of results in patent publication US20240352117A1 (QYUNS THERAPEUTICS, published 2024).

As usually defined, the Kd is the equilibrium constant for the complex coming apart. By koff is commonly meant the first-order rate constant of dissociation. The kon is the rate constant with which the complex forms.

The target in one experiment is Cynomolgus monkey TSLP (cynomolgus monkey, UniProt A0A7N9CAT7 29-159). The experiment is described as follows: cell-based or functional assay.
Experiment [1] deals with T1, Human thymic stromal lymphopoietin (TSLP) (human, UniProt Q969D9 29-159).
T1 construct: also called human TSLP; hTSLP
Kind of experiment: SPR, Biacore T200, 25 C, antibody captured on Protein A chip, human TSLP as analyte, 1:1 model, mean of three tests. As to the method:
Biacore T200 was used to detect the affinity of QX008N (HZD8G2-57) binding to human TSLP. All processes were performed at 25° C. A commercial Protein A chip was used to immobilize an appropriate amount of antibody through the capture method so that Rmax was around 50RU and the capture flow rate was 10 μl/min. The antigen was diluted by gradient, the flow rate of the instrument was switch to 30 μl/min, and the antigen flowed through the reference channel and the fixed antibody channel in order from low to high concentration, with the antigen flowing through the buffer as a negative control. After each binding and dissociation was completed, the chip was regenerated with glycine at pH 1.5. The 1:1 binding model in Kinetics option was selected for fitting using the analysis software that comes with the instrument, and the binding rate constant kₐ, the dissociation rate constant kd and the equilibrium dissociation constant KD value of the antibody were calculated.
The detection method for known antibodies was the same as that for QX008N.
(Surface plasmon resonance follows binding to a sensor surface in real time, without labels.)

The target of experiment [2] is T1, Human thymic stromal lymphopoietin …. Kind of experiment: cell-based or functional assay.
The next experiment deals with natural TSLP. The experiment is described as follows: cell-based or functional assay.

Sequence of Cynomolgus monkey TSLP (A0A7N9CAT7 entry or part of it): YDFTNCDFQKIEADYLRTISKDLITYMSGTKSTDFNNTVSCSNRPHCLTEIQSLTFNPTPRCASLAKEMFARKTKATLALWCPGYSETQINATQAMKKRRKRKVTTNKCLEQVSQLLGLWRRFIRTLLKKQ

B1: Tezepelumab (antibody, V domains shown)
VH: QMQLVESGGGVVQPGRSLRLSCAASGFTFRTYGMHWVRQAPGKGLEWVAVIWYDGSNKHYADSVKGRFTITRDNSKNTLNLQMNSLRAEDTAVYYCARAPQWELVHEAFDIWGQGTMVTVSS
VL: SYVLTQPPSVSVAPGQTARITCGGNNLGSKSVHWYQQKPGQAPVLVVYDDSDRPSWIPERFSGSNSGNTATLTISRGEAGDEADYYCQVWDSSSDHVVFGGGTKLTVLG
With B1, the “IC50 of inhibiting STAT5 phosphorylation in SW756-STAT5-Luciferase reporter gene cells induced by Cynomolgus monkey TSLP” value with Cynomolgus monkey TSLP was found to be 1.88 ng/mL.

B2: QX008N (HZD8G2-57) (antibody, human IgG1, kappa, V domains shown)
VH: EVQLVESGGGLVQPGGSLRLSCAASGFSLSSYYMSWVRQAPGKGLEWVGFISYGGSAYHATWAQGRFTISKDNSKNTLYLQMNSLRAEDTAVYYCAREFRSMTYGAEWGIWGQGTLVTVSS
VL: AYQMTQSPSSVSASVGDRVTITCQASESIYDTLAWYQQKPGKAPKLLIYSASSLASGVPSRFSGSGSGTDFTLTISSLQPEDFATYYCQQGYTMPDVDKNPFGGGTKVEIKR
notes: Humanized rabbit antibody from clone 8G2; Expressed in ExpiCHO-S cells and purified with Protein A; also called humanized 8G2
Consider B2, for which, in experiment [1], binding was characterised by a dissociation constant (Kd) of 0.0175 nM, the dissociation rate constant (koff) is 2.99e-05 s⁻¹ and the kon was found to be 1.74e+06 M⁻¹ s⁻¹. In addition, in experiment [2], the “IC50 of inhibiting STAT5 phosphorylation in SW756-STAT5-Luciferase reporter gene cells induced by human TSLP” value is 0.837 ng/mL, the “IC50 of inhibiting the release of TARC (CCL17) from PBMCs induced by human TSLP” value was 77.1 ng/mL and the “IC50 of inhibiting the release of TARC (CCL17) from human whole blood induced by human TSLP” value worked out at 0.839 ng/mL. In addition, the “IC50 of inhibiting STAT5 phosphorylation in SW756-STAT5-Luciferase reporter gene cells induced by natural TSLP” value in the experiment with natural TSLP worked out at 0.462 ng/mL. In addition, in the experiment with Cynomolgus monkey TSLP, the “IC50 of inhibiting STAT5 phosphorylation in SW756-STAT5-Luciferase reporter gene cells induced by Cynomolgus monkey TSLP” value is 0.889 ng/mL.
